Patent US20260132208A1 (DOMAIN THERAPEUTICS, published 2026)
Positions count from the first letter of the chain named. Where “and” joins values, the source holds several entries; their conditions need not be identical. Equal values may be shown once.

B1: anti-CCR8 mAb 1-3 (antibody, V domains shown)
VH: KVQLQQSGPELVKPGASVKISCKTSGYTFTEYTIHWVQQIHGKSPEWIGGINPNGDTRYDQKFKGKATLTIDKSSSTAYMELRSLTSEDSAVYYCARVARFYGISPYAMDYWGQGTSVTVSS
VL: DVVMTQTPLSLPVSLGDQASISCRCTQSLLHSNGDTYLHWYLQKPGQSPNLLIYKVSNRFSGVPDRFSGSGSGTDFTLKINRVEAEDLGVYFCSQSTHVPYTFGGGTNLEIK
notes: Murine hybridoma mAb
B2: anti-CCR8 mAb 1-5 (antibody, V domains shown)
VH: QVQLKESGPGLVAPSQSLSITCTVSGLSMNDYVVTWIRQPPGKGLEWLGVIWGGGNTYYNSDLKSRLSITKDNSKSQVFFKMSSLQTDDTAVYYCARRHRDYALDYWGQGISVTVSS
VL: B1 VL with C25S, T26S, L30V, H31Y, D35N, N50K, N81S, H98Y, Y101P, N108K
notes: Murine hybridoma mAb
B3: anti-CCR8 mAb 1-6 (antibody, V domains shown)
VH: EVQLQQSGPELLKPGTSVKISCTTSGYTFSDYTLHWVKQSHGKSLEWIGGITPKNGDTRYDPRFKDKATLTIDKSSSAAYMELRSLTSEDSAVYYCARVARFYGVSPYAMDYWGQGASVTVSS
VL: B1 VL with N50K, K79E, N81T, S96T, N108K
notes: Murine hybridoma mAb
B4: anti-CCR8 mAb 1-18 (antibody, V domains shown)
VH: QVQVQQSGAELARPGASVKMSCKASGYTFTTYAMHWVKQRPGQGLEWIGHINPSSGYSNYNQKFKDKATLTADKSSSTAYMQLSSLTSEDSAVYYCARSEVRRGYFDVWGAGTTVTVSS
VL: DIQMTQTTSSLSASLGDRVTISCRTSQDIRNYLNWYQQKPDGTVKLLISYTSRLHSGVPSRFSGSGSGTDYSLTISNLEQEDFATYFCQQGNTLPPTFGGGTRVEIK
notes: Murine hybridoma mAb
B5: Ref #1 (antibody, human IgG1, V domains shown)
VH: EVQLLESGGGLVQPGGSLRLSCAASGFTFSSYGMHWVRQAPGKGLEWVSAINWNGGSTGYADSVKGRFTISRDNSKNTLYLQMNSLRAEDTAVYYCARGHHSGYDGRFFDYWGQGTLVTVSS
VL: QSVLTQPPSVSGAPGQRVTISCTGSSSNIGAGYNVHWYQQLPGTAPKLLIYTNNRRPSGVPDRFSGSKSGTSASLAISGLRSEDEADYYCAAWDASLSGWVFGGGTKLTVL
notes: Benchmark; cloned into vectors encoding heavy and light chains of human IgG1, produced in CHO; also called TPP-21360 of WO 2021/260210
B6: anti-CCR8 mAb 1-28 (antibody, human IgG1, kappa, V domains shown)
VH: EVQLVESGGGLVQPTGSLRLSCAASGFTFNAYAMNWVRQAPGKGLEWVARIRSKSNDYATYYGDSVKDRFTISRDDSQSMLYLQMNNLKTEDTAMYYCVRGREAYYRYDGGYYAMDYWGQGTSVTVSS
VL: DIVMTQAAPSVSVTPGESVSISCTSSKSLLHSNGNTYLYWFLQRPGQSPQLLIYRMSNLASGVPDRFSGSGSGTAFTLRISRVEAEDVGVYYCMQHREYPFTFGSGTKLEIKR

Biological target: T1, human CCR8 (human, UniProt P51685 1-355)
Assay: cell-based or functional assay

Row | IC50 of CCL1-induced hCCR8 Gi2 signaling (BRET), pH 6.5 | IC50 of CCL1-induced hCCR8 Gi2 signaling (BRET), pH 7.4 | Binder
1 | 0.051 µg/ml and 0.34 nM | 0.059 µg/ml and 0.396 nM | B1
2 | 0.414 µg/ml and 2.76 nM | 0.359 µg/ml and 2.4 nM | B2
3 | 0.044 µg/ml and 0.292 nM | 0.061 µg/ml and 0.405 nM | B3

Biological target: T2, pm8 (Y15, Y16 and Y17 sulfated)
T2 construct: also called sulfated CCR8 N-terminal peptide pm8
T2 sequence (peptide, as listed by the source): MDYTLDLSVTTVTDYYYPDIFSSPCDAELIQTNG
Assay: ELISA on coated peptide [cont.]
Outline: (§1)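 Steps: peptide coating (500 ng/ml, carbonate/bicarbonate); anti-CCR8 mAb added at 1 μg/mL and diluted 1/10; room-temperature incubation of 90 min; washes to remove unbound antibody; 15 min TMB; OD measurement.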

Row | binding result | Binder
4 | binds | B1
5 | binds | B2
6 | binds | B3
7 | binds | B4

Biological target: T3, pm2 (sulfated tyrosine(s) among Y15, Y16, Y17; which ones is not told (the underlining of Table 1 is lost in the text))
T3 construct: also called sulfated CCR8 N-terminal peptide pm2
T3 sequence (peptide, as listed by the source): as above
Assay: ELISA on coated peptide [cont.]
Outline: as §1

Row | binding result | Binder
8 | binds | B1
9 | binds | B2
10 | binds | B3
11 | binds | B4

Biological target: T4, pm3 (Y17 sulfated; Y15 and Y16 not sulfated)
T4 construct: also called sulfated CCR8 N-terminal peptide pm3
T4 sequence (peptide, as listed by the source): as above
Assay: ELISA on coated peptide [cont.]
Outline: as §1

Row | binding result | Binder
12 | binds | B1
13 | binds | B2
14 | binds | B3
15 | binds | B4

Biological target: T5, pm4 (sulfated tyrosine(s) among Y15, Y16, Y17; which ones is not told (the underlining of Table 1 is lost in the text))
T5 construct: also called sulfated CCR8 N-terminal peptide pm4
T5 sequence (peptide, as listed by the source): as above
Assay: ELISA on coated peptide [cont.]
Outline: as §1

Row | binding result | Binder
16 | binds | B1
17 | binds | B3
18 | binds | B4

Biological target: T6, pm5 (Y15 and Y17 sulfated; Y16 not sulfated)
T6 construct: also called sulfated CCR8 N-terminal peptide pm5
T6 sequence (peptide, as listed by the source): as above
Assay: ELISA on coated peptide [cont.]
Outline: as §1

Row | binding result | Binder
19 | binds | B1
20 | binds | B2
21 | binds | B3
22 | binds | B4

Biological target: T7, pm1 (sulfated tyrosine(s) among Y15, Y16, Y17; which ones is not told (the underlining of Table 1 is lost in the text))
T7 construct: also called sulfated CCR8 N-terminal peptide pm1
T7 sequence (peptide, as listed by the source): as above
Assay: ELISA on coated peptide [cont.]
Outline: as §1

Row | binding result | Binder
23 | binds | B1
24 | binds | B2
25 | binds | B3
26 | binds | B4

Biological target: T8, pwt1 (none (unmodified peptide))
T8 construct: also called unmodified CCR8 N-terminal peptide
T8 sequence (peptide, as listed by the source): as above
Assay: ELISA on coated peptide [cont.]
Outline: as §1

Row | binding result | Binder
27 | binds | B1
28 | binds | B2
29 | binds | B3
30 | binds | B4

Biological target: T9, pm6 (Y16 and Y17 sulfated; Y15 not sulfated)
T9 construct: also called sulfated CCR8 N-terminal peptide pm6
T9 sequence (peptide, as listed by the source): as above
Assay: ELISA on coated peptide [cont.]
Outline: as §1

Row | binding result | Binder
31 | binds | B1
32 | binds | B2
33 | binds | B3
34 | binds | B4

Biological target: T1, human CCR8
Assay: cell-based or functional assay
Remark: another data set of the same source

Row | IC50 of CCL1-induced hCCR8 Gi2 signaling (BRET, HEK-293) | Binder
35 | 0.069 µg/mL and 0.462 nM | B1
36 | 0.143 µg/mL and 0.954 nM | B2
37 | 0.049 µg/mL and 0.328 nM | B3
38 | 0.004 µg/mL and 0.029 nM | B4
39 | 0.101 µg/mL and 0.675 nM | B5

Biological target: T10, human CCR8 with a SNAP-tag at the N-terminus (human, UniProt P51685 1-355, SNAP-tag labelled covalently with Lumi4-Terbium)
T10 construct: also called hCCR8 SNAP-tag; CCR8 SNAP-tag
Assay: HTRF Tag-lite, inhibition of hCCL1-AF647 binding to SNAP-hCCR8 on HEK-293 cells
Method: The inhibition of CCL1 binding to hCCR8 was evaluated with the Tag-Lite® technology from Cisbio (Revvity). Human CCR8 is engineered with a SNAP-tag at the N-terminus of the GPCR. hCCR8 SNAP-tag is transiently transfected on HEK-293 cell line using FuGene® (Promega, Madison, WI, USA). 48 hours after transfection, cells are labeled with the substrate Lumi4-Terbium® (Cisbio, Codolet, France) which covalently reacts with the SNAP-tag, for 1 h at 37° C. Thawed or freshly labeled cells are plated in a 384 low volume white plate (GREINER Bio-One, Courtaboeuf, France) (10000 cells/well/10 μl). […] The Kd was previously obtained in a saturation binding assay on the same cells. […] The plate is next incubated at 21° C. for 2 h. Detection of HTRF signal is performed on the multiplate reader EnVision (PerkinElmer, Waltham, MA, USA). The HTRF (665/620) ratio is calculated by EnVision software, the data exported are considered as the total binding. The specific binding is calculated then by subtracting the non-specific signal from the total binding. The Ki and IC₅₀ are calculated using the “One site-Fit Ki” and “One site-FitlogIC50” from GraphPad Prism 9 (Graphpad Software, San Diego, CA, USA), respectively.

Row | IC50 [µg/mL] | Ki [µg/mL] | Binder
40 | 0.45 | 0.23 | B5

Biological target: T1, human CCR8
Assay: cell-based or functional assay
Remark: another data set of the same source

Row | ADCC % max lysis, HUT78 targets, NK donor 1 [%] | ADCC % max lysis, HUT78 targets, NK donor 2 [%] | ADCC EC50, HUT78 targets, NK donor 1 [pM] | ADCC EC50, HUT78 targets, NK donor 2 [pM] | Binder
41 | 31 | 26 | 73.3 | 90.4 | B6

Biological target: T10, human CCR8 with a SNAP-tag at the …
Assay: cell-based or functional assay

Row | % hCCR8 internalization with CCL1 300 nM, mAb 1 µg/ml (HTRF) [%] | % hCCR8 internalization with CCL1 300 nM, mAb 10 µg/ml (HTRF) [%] | Binder
42 | 126 | 111 | B5

Biological target: T1, human CCR8
Assay: flow cytometry, inhibition of hCCL1-AF647 (10 nM) binding to hCCR8-CHO cells
Outline: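 hCCR8-transfected CHO cells preincubated 30 min at 4 °C with anti-CCR8 mAb (8 concentrations, top 10 μg/mL, 1/3 dilutions), washed, then exposed to labelled CCL1. Bound CCL1 quantified by flow cytometry; IC₅₀ of binding blockade from sigmoidal variable-slope fit.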

Row | IC50 | Binder
43 | 1.29 µg/mL and 8.62 nM | B1
44 | 15.2 nM and 2.65 µg/mL | B2
45 | 1.3 µg/mL and 8.71 nM | B3
46 | 0.22 µg/mL and 1.46 nM | B4
47 | 0.65 µg/mL | B5

Biological target: T1, human CCR8
Assay: cell-based or functional assay
Remark: another data set of the same source

Row | residual hCCL1 (100 nM) Gi2 response, protocol #2, mAb 0.08 µg/mL [%] | residual hCCL1 (100 nM) Gi2 response, protocol #2, mAb 0.4 µg/mL [%] | residual hCCL1 (100 nM) Gi2 response, protocol #2, mAb 10 µg/mL [%] | residual hCCL1 (100 nM) Gi2 response, protocol #3, mAb 0.05 µg/mL [%] | residual hCCL1 (100 nM) Gi2 response, protocol #3, mAb 0.5 µg/mL [%] | residual hCCL1 (100 nM) Gi2 response, protocol #3, mAb 5 µg/mL [%] | Binder
48 | 101 | 93 | 100 | 92 | 81 | 73 | B1
49 | 99 | 97 | 97 | 99 | 84 | 75 | B2
50 | 79 | 38 | 17 | 102 | 64 | 47 | B3
51 | 52 | 68 | 53 | 76 | 62 | 59 | B4

Biological target: T1, human CCR8
Assay: cell-based or functional assay
Remark: another data set of the same source

Row | extrapolated top plateau of hCCL1 curve with 5 µg/mL mAb, protocol #3 | Binder
52 | 663 % of hCCL1 (100 nM) | B1
53 | 133 % of hCCL1 (100 nM) | B2
54 | 667000 % of hCCL1 (100 nM) | B3
55 | 948 % of hCCL1 (100 nM) | B4

Biological target: T1, human CCR8
Assay: flow cytometry, hCCR8-transfected CHO-K1 cells
Outline: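 Bound mAb was detected with Alexa Fluor 488 anti-mouse IgG or PE anti-human IgG Fc by flow cytometry, with isotype controls. EC50 came from a four-parameter fit.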

Row | % positive cells [%] | MFI fold change to isotype ctrl [fold] | Binder
56 | 85.7 | 9.8 | B1
57 | 85.2 | 11.9 | B2
58 | 81.1 | 10.7 | B3
59 | 77 | 9.2 | B4
60 | 75.1 | – | B5
